Data reported in the supplement of paper PMC11246515.
± gives the standard deviation of the averaged measurements.

Assay: total protein half-life in vivo (active degradation + dilution); higher = more stable protein
[1] = E. coli NCM3722 delta-clpP delta-lon delta-hslV, growth: N-lim chemostat, doubling time 6 h
[2] = E. coli NCM3722 delta-clpP, growth: N-lim chemostat, doubling time 6 h
[3] = E. coli NCM3722 delta-hslV, growth: N-lim chemostat, doubling time 6 h
[4] = E. coli NCM3722 delta-lon, growth: N-lim chemostat, doubling time 6 h
[5] = E. coli NCM3722 delta-smpB, growth: N-lim chemostat, doubling time 6 h
[6] = wild type E. coli NCM3722, growth: C-lim chemostat, doubling time 3 h
[7] = wild type E. coli NCM3722, growth: C-lim chemostat, doubling time 6 h
[8] = wild type E. coli NCM3722, growth: C-lim chemostat, doubling time 12 h
[9] = wild type E. coli NCM3722, growth: N-lim chemostat, doubling time 6 h
[10] = wild type E. coli NCM3722, growth: N-lim chemostat, doubling time 12 h
[11] = wild type E. coli NCM3722, growth: P-lim chemostat, doubling time 6 h
[12] = wild type E. coli NCM3722, growth: P-lim chemostat, doubling time 12 h

| Sequence | total protein half-life in vivo [1] | total protein half-life in vivo [2] | total protein half-life in vivo [3] | total protein half-life in vivo [4] | total protein half-life in vivo [5] | total protein half-life in vivo [6] | total protein half-life in vivo [7] | total protein half-life in vivo [8] | total protein half-life in vivo [9] | total protein half-life in vivo [10] | total protein half-life in vivo [11] | total protein half-life in vivo [12] |
| --- | --- | --- | --- | --- | --- | --- | --- | --- | --- | --- | --- | --- |
| MRISLKKSGMLKLGLSLVAMTVAASVQAKTLVYCSEGSPEGFNPQLFTSGTTYDASSVPLYNRLVEFKIGTTEVIPGLAEKWEVSEDGKTYTFHLRKGVKWHDNKEFKPTRELNADDVVFSFDRQKNAQNPYHKVSGGSYEYFEGMGLPELISEVKKVDDNTVQFVLTRPEAPFLADLAMDFASILSKEYADAMMKAGTPEKLDLNPIGTGPFQLQQYQKDSRIRYKAFDGYWGTKPQIDTLVFSITPDASVRYAKLQKNECQVMPYPNPADIARMKQDKSINLMEMPGLNVGYLSYNVQKKPLDDVKVRQALTYAVNKDAIIKAVYQGAGVSAKNLIPPTMWGYNDDVQDYTYDPEKAKALLKEAGLEKGFSIDLWAMPVQRPYNPNARRMAEMIQADWAKVGVQAKIVTYEWGEYLKRAKDGEHQTVMMGWTGDNGDPDNFFATLFSCAASEQGSNYSKWCYKPFEDLIQPARATDDHNKRVELYKQAQVVMHDQAPALIIAHSTVFEPVRKEVKGYVVDPLGKHHFENVSIE | 6.22 ± 0.29 h | 6.39 ± 1.1 h | 6.489 ± 0.018 h | 6.6 ± 0.13 h | 5.83 ± 0.096 h | 3.33 ± 0.069 h | 6.97 ± 1.4 h | 14.3 ± 1.9 h | 6.058 ± 0.029 h | 12.9 ± 0.92 h | 6.06 ± 0.45 h | 13.1 ± 0.31 h |
| MSLISMHGAWLSFSDAPLLDNAELHIEDNERVCLVGRNGAGKSTLMKILNREQGLDDGRIIYEQDLIVARLQQDPPRNVEGSVYDFVAEGIEEQAEYLKRYHDISRLVMNDPSEKNLNELAKVQEQLDHHNLWQLENRINEVLAQLGLDPNVALSSLSGGWLRKAALGRALVSNPRVLLLDEPTNHLDIETIDWLEGFLKTFNGTIIFISHDRSFIRNMATRIVDLDRGKLVTYPGNYDQYLLEKEEALRVEELQNAEFDRKLAQEEVWIRQGIKARRTRNEGRVRALKAMRRERGERREVMGTAKMQVEEASRSGKIVFEMEDVCYQVNGKQLVKDFSAQVLRGDKIALIGPNGCGKTTLLKLMLGQLQADSGRIHVGTKLEVAYFDQHRAELDPDKTVMDNLAEGKQEVMVNGKPRHVLGYLQDFLFHPKRAMTPVRALSGGERNRLLLARLFLKPSNLLILDEPTNDLDVETLELLEELIDSYQGTVLLVSHDRQFVDNTVTECWIFEGGGKIGRYVGGYHDARGQQEQYVALKQPAVKKTEEAAAAKAETVKRSSSKLSYKLQRELEQLPQLLEDLEAKLEALQTQVADASFFSQPHEQTQKVLADMAAAEQELEQAFERWEYLEALKNGG | 4.79 ± 0.63 h | 5.1 ± 0.79 h | 4.73 ± 0.16 h | 4.8 ± 0.17 h | 4.38 ± 0.62 h | 3.41 ± 0.18 h | 5.82 ± 0.35 h | 10.4 ± 1.5 h | 4.37 ± 0.087 h | 7.15 ± 0.13 h | 5.42 ± 0.33 h | 9.51 ± 0.35 h |
| MRNIIKLALAGLLSVSTFAVAAESSPEALRIGYQKGSIGMVLAKSHQLLEKRYPESKISWVEFPAGPQMLEALNVGSIDLGSTGDIPPIFAQAAGADLVYVGVEPPKPKAEVILVAENSPIKTVADLKGHKVAFQKGSSSHNLLLRALRQAGLKFTDIQPTYLTPADARAAFQQGNVDAWAIWDPYYSAALLQGGVRVLKDGTDLNQTGSFYLAARPYAEKNGAFIQGVLATFSEADALTRSQREQSIALLAKTMGLPAPVIASYLDHRPPTTIKPVNAEVAALQQQTADLFYENRLVPKKVDIRQRIWQPTQLEGKQL | 5.27 ± 1.8 h | 5.07 ± 0.72 h |  | 4.66 ± 1.7 h | 5.32 ± 0.25 h | > 4 h | 4.74 ± 0.1 h | 8.06 h | 5.64 h | 12.52 ± 0.069 h |  |  |
| MARLFTLSESKYYLMALDAGTGSIRAVIFDLEGNQIAVGQAEWRHLAVPDVPGSMEFDLNKNWQLACECMRQALHNAGIAPEYIAAVSACSMREGIVLYNNEGAPIWACANVDARAAREVSELKELHNNTFENEVYRATGQTLALSAIPRLLWLAHHRSDIYRQASTITMISDWLAYMLSGELAVDPSNAGTTGLLDLTTRDWKPALLDMAGLRADILSPVKETGTLLGVVSSQAAELCGLKAGTPVVVGGGDVQLGCLGLGVVRPAQTAVLGGTFWQQVVNLAAPVTDPEMNVRVNPHVIPGMVQAESISFFTGLTMRWFRDAFCAEEKLIAERLGIDTYTLLEEMASRVPPGSWGVMPIFSDRMRFKTWYHAAPSFINLSIDPDKCNKATLFRALEENAAIVSACNLQQIADFSNIHPSSLVFAGGGSKGKLWSQILADVSGLPVNIPVVKEATALGCAIAAGVGAGIFSSMAETGERLVRWERTHTPDPEKHELYQDSRDKWQAVYQDQLGLVDHGLTTSLWKAPGL | 4.78 ± 0.065 h | 1.36 h |  | 2.49 h | 1.27 h | 1.55 ± 0.35 h | 2.83 ± 0.42 h | 2.92 ± 0.031 h |  |  |  |  |
| MRIEVTIAKTSPLPAGAIDALAGELSRRIQYAFPDNEGHVSVRYAAANNLSVIGATKEDKQRISEILQETWESADDWFVSE [P0ABR1] | 3.596 ± 0.025 h |  | 2.28 h | 2.08 ± 0.25 h |  | 0.937 ± 0.5 h |  |  |  | 0.715 h |  | 0.859 h |
| MKSPAPSRPQKMALIPACIFLCFAALSVQAEETPVTPQPPDILLGPLFNDVQNAKLFPDQKTFADAVPNSDPLMILADYRMQQNQSGFDLRHFVNVNFTLPKEGEKYVPPEGQSLREHIDGLWPVLTRSTENTEKWDSLLPLPEPYVVPGGRFREVYYWDSYFTMLGLAESGHWDKVADMVANFAHEIDTYGHIPNGNRSYYLSRSQPPFFALMVELLAQHEGDAALKQYLPQMQKEYAYWMDGVENLQAGQQEKRVVKLQDGTLLNRYWDDRDTPRPESWVEDIATAKSNPNRPATEIYRDLRSAAASGWDFSSRWMDNPQQLNTLRTTSIVPVDLNSLMFKMEKILARASKAAGDNAMANQYETLANARQKGIEKYLWNDQQGWYADYDLKSHKVRNQLTAAALFPLYVNAAAKDRANKMATATKTHLLQPGGLNTTSVKSGQQWDAPNGWAPLQWVATEGLQNYGQKEVAMDISWHFLTNVQHTYDREKKLVEKYDVSTTGTGGGGGEYPLQDGFGWTNGVTLKMLDLICPKEQPCDNVPATRPTVKSATTQPSTKEAQPTP | 6.13 ± 0.28 h |  | 7.29 ± 0.5 h | 6.16 ± 0.95 h | 5.94 ± 0.87 h | 3.51 ± 0.67 h | 6.59 ± 0.25 h | 11.2 ± 0.94 h | 6.28 ± 0.098 h | 14.4 ± 0.85 h |  | 14.4 ± 1.6 h |
| MIKKTTEIDAILLNLNKAIDAHYQWLVSMFHSVVARDASKPEITDNHSYGLCQFGRWIDHLGPLDNDELPYVRLMDSAHQHMHNCGRELMLAIVENHWQDAHFDAFQEGLLSFTAALTDYKIYLLTIRSNMDVLTGLPGRRVLDESFDHQLRNAEPLNLYLMLLDIDRFKLVNDTYGHLIGDVVLRTLATYLASWTRDYETVYRYGGEEFIIIVKAANDEEACRAGVRICQLVDNHAITHSEGHINITVTAGVSRAFPEEPLDVVIGRADRAMYEGKQTGRNRCMFIDEQNVINRV |  |  |  |  | 1.44 h |  |  |  |  | 3.5 h |  |  |
| MQSVTPTSQYLKALNEGSHQPDDVQKEAVSRLEIIYQELINSTPPAPRTSGLMARVGKLWGKREDTKHTPVRGLYMWGGVGRGKTWLMDLFYQSLPGERKQRLHFHRFMLRVHEELTALQGQTDPLEIIADRFKAETDVLCFDEFFVSDITDAMLLGGLMKALFARGITLVATSNIPPDELYRNGLQRARFLPAIDAIKQHCDVMNVDAGVDYRLRTLTQAHLWLSPLHDETRAQMDKLWLALAGGKRENSPTLEINHRPLATMGVENQTLAVSFTTLCVDARSQHDYIALSRLFHTVMLFDVPVMTRLMESEARRFIALVDEFYERHVKLVVSAEVPLYEIYQGDRLKFEFQRCLSRLQEMQSEEYLKREHLAG | 3.66 ± 0.54 h | 2.97 ± 0.16 h | 3.35 ± 0.15 h | 2.58 h | 3.103 ± 0.03 h | 2.72 ± 0.05 h | 5.71 ± 0.58 h | 9.73 ± 1.3 h | 3.4 ± 0.15 h | 5.55 ± 0.15 h | 5.25 ± 0.66 h | 9.34 ± 1.1 h |
| MITTRTARQCGQADYGWLQARYTFSFGHYFDPKLLGYASLRVLNQEVLAPGAAFQPRTYPKVDILNVILDGEAEYRDSEGNHVQASAGEALLLSTQPGVSYSEHNLSKDKPLTRMQLWLDACPQRENPLIQKLALNMGKQQLIASPEGAMGSLQLRQQVWLHHIVLDKGESANFQLHGPRAYLQSIHGKFHALTHHEEKAALTCGDGAFIRDEANITLVADSPLRALLIDLPV | 5.48 ± 0.071 h | 4.42 ± 0.18 h | 5.31 ± 0.28 h | 4.33 ± 0.52 h | 4.37 ± 0.26 h |  | 4.71 h | 9.966 ± 0.01 h | 6.13 h | 8.48 ± 1.3 h | 4.66 ± 0.36 h | 9.05 ± 0.27 h |
| MRNHRISLQDIATLAGVTKMTVSRYIRSPKKVAKETGERIAKIMEEINYIPNRAPGMLLNAQSYTLGILIPSFQNQLFADILAGIESVTSEHNYQTLIANYNYDRDSEEESVINLLSYNIDGIILSEKYHTIRTVKFLRSATIPVVELMDVQGERLDMEVGFDNRQAAFDMVCTMLEKRVRHKILYLGSKDDTRDEQRYQGYCDAMMLHNLSPLRMNPRAISSIHLGMQLMRDALSANPDLDGVFCTNDDIAMGALLLCRERNLAVPEQISIAGFHGLEIGRQMIPSLASVITPRFDIGRMAAQMLLSKIKNNDHNHNTVDLGYQIYHGNTL | 6.39 ± 1.7 h |  |  |  |  | 0.548 h |  | 1.1 h |  |  |  |  |
